Laboratory results taken from paper PMC4332253 (The Journal of Cell Biology, 2015).
Ends that are not written are not given here.

T1: MBP-Cdc12 (aa 1–764) (S. pombe, UniProt Q10059 1-764)
T1 sequence (looked up): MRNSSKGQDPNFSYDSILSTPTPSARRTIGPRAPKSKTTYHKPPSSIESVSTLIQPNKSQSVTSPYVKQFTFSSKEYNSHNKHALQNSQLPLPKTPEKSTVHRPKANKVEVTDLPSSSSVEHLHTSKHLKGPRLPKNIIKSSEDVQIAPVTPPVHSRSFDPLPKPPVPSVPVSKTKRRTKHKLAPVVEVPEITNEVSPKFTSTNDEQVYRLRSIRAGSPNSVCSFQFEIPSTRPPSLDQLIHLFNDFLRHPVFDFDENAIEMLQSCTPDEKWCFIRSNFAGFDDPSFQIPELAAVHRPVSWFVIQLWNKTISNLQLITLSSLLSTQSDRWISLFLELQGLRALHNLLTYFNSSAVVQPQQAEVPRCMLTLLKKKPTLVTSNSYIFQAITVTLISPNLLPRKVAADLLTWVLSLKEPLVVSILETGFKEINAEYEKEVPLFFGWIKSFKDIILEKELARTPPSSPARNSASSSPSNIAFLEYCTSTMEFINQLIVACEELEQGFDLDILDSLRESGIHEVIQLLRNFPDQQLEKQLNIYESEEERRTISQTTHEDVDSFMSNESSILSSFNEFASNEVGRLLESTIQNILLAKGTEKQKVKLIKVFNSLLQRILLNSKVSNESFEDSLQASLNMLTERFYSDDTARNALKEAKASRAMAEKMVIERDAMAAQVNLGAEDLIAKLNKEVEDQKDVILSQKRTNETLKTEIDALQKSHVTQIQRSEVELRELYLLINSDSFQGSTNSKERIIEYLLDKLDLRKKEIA

B1: Cdc15 F-BAR (aa 19–312) (domain or fragment, S. pombe, UniProt Q09822 19-312, looked up)
chain: SVKFRDNFWGSEDAGMDALMSRTKSSLSVLESIDEFYAKRASIEREYASKLQELAASSADIPEVGSTLNNILSMRTETGSMAKAHEEVSQQINTELRNKIREYIDQTEQQKVVAANAIEELYQKKTALEIDLSEKKDAYEYSCNKLNSYMRQTKKMTGRELDKYNLKIRQAALAVKKMDAEYRETNELLLTVTREWIDRWTEVCDAFQHIEEYRLEFLKTNMWAYANIISTACVKDDESCEKIRLTLENTNIDEDITQMIQNEGTGTTIPPLPEFNDYFKENGLNYDIDQLISK

Tests used:
MBP-Cdc12 (aa 1–764) = target: T1, MBP-Cdc12 (aa 1–764); test: pull-down
Cdc15 F-BAR (aa 19–312) = target: B1; test: pull-down

Row | binding result (MBP-Cdc12 (aa 1–764)) | Kd (Cdc15 F-BAR (aa 19–312)) [nM] | Binder
1 | binds |  | B1
2 |  | 1.1 | TPTPSARRTIGPRAPKSKTTY (peptide, UniProt Q10059 20-40, looked up, also: biotinylated, position not given here) [Cdc12 (aa 20–40) synthetic peptide]
